Assay [1] concerns the target Biotin-FcγRIIB (human FcγRIIB, Sino Biological) (human) (UniProt P31994). As to the kind of experiment: flow cytometry, 3T3 cells displaying the antibody, biotin-FcγRIIB. A general note: A flow cytometer gives signals particle by particle.
For assay [2] the target is unchanged. Put plainly: NGS after FACS sort of 3T3-displayed Library2 for biotin-FcγRIIB binding.
The target is the same in assay [3]. As to the kind of experiment: NGS after FACS sort of 3T3-displayed Library4 for biotin-FcγRIIB binding.
Assay [4] has the same target. As to the kind of experiment: NGS after FACS sort of 3T3-displayed LibraryMix for biotin-FcγRIIB binding.
For assay [5] the target is unchanged. As to the kind of experiment: flow cytometry, 3T3 cells displaying the antibody, biotin-FcγRIIB + Streptavidin-APC.
Assay [6] concerns the target Biotin-FcγRIIB (human) (UniProt P31994). As to the kind of experiment: sorting of displayed Fc library on FcγRIIB, NGS.
For assay [7] the target is unchanged. Put plainly: FACS sorting of displayed Fc library on biotin-FcγRIIB, NGS.
For assay [8] the target is unchanged. As to the kind of experiment: FACS sorting of displayed Fc library on biotin-FcγRIIB, NGS; reference G236V.
Assay [9] shares this target. As to the kind of experiment: FACS sorting of displayed Fc library on biotin-FcγRIIB, NGS; reference P271G.
Assay [10] addresses T1, Biotin-FcγRIIB (human, UniProt P31994 43-217, limits assumed, biotin-labelled).
T1 construct: Bought, biotin-labelled; used at 1 µg/ml for staining and sorting; also called human FcγRIIB; CD32b
T1 sequence (looked up): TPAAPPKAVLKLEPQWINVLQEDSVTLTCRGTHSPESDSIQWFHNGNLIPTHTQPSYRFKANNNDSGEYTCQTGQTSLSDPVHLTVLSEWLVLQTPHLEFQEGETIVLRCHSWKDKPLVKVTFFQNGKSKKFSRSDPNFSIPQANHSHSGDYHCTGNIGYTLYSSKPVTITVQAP
As to the kind of experiment: FACS sorting of displayed Fc library on biotin-FcγRIIB, NGS.

Assay [11] has as its target T1, Biotin-FcγRIIB. Put plainly: FACS sorting of displayed Fc library on biotin-FcγRIIB, NGS; reference P271G.
The target of assay [12] is T1, Biotin-FcγRIIB. Put plainly: FACS sorting of displayed Fc library on biotin-FcγRIIB, NGS; reference S298R.
Assay [13] has as its target T1, Biotin-FcγRIIB. As to the kind of experiment: FACS sorting of displayed Fc library on biotin-FcγRIIB, NGS; reference S267E.

6 molecules from patent US20230220042A1 (SHANGHAI JIAO TONG UNIVERSITY SCHOOL OF MEDICINE, published 2023) can be followed below.

Changes are numbered by the printed parent chain. In names and notes the source's numbering stands.

On to “human IgG2 anti-mouse CD40 surface displayed antibody (wild-type Fc)”, for which, in [1], the proportion of the cells capable of binding to FcγRIIB was found to be 0.23%. The Enrichment factor (percentage after sorting/percentage before sorting) in [2] stood at 0.57; in [3], 1.49; in [4], 0.75. For the same molecule, the proportion of the cells binding to FcγRIIB in assay [5] is 0.34%.
“human IgG2 anti-mouse CD40 surface displayed antibody, Fc mutant G236D” showed an Enrichment factor (percentage after sorting/percentage before sorting) in assay [6] of 0.84.
In assay [7], “human IgG2 anti-mouse CD40 surface displayed antibody, Fc mutant P271G/G236V” showed an Enrichment factor (after/before sorting) of 10.3 and an Increased factor a (enrichment factor/wild-type enrichment factor) of 13.7. For the same molecule, the Increased factor 2 c Site 2 (combined/point mutation) in [8] came out at 30.5. In addition, the Increased factor 2 c Site 1 (combined/point mutation) in assay [9] stood at 2.9.
As for “human IgG2 anti-mouse CD40 surface displayed antibody, Fc mutant S298A”, in [6], the Enrichment factor (percentage after sorting/percentage before sorting) turned out to be 0.92.

B1: human IgG2 anti-mouse CD40 surface displayed antibody, Fc mutant P271G/S298R (antibody, name in EU numbering)
light chain (with the P2A rest): DTVLTQSPALAVSPGERVTISCRASDSVSTLMHWYQQKPGQQPKLLIYLASHLESGVPARFSGSGSGTDFTLTIDPVEADDTATYYCQQSWNDPWTFGGGTKLELKRTVAAPSVFIFPPSDEQLKSGTASVVCLLNNFYPREAKVQWKVDNALQSGNSQESVTEQDSKDSTYSLSSTLTLSKADYEKHKVYACEVTHQGLSSPVTKSFNRGECGSGATNFSLLKQAGDVEENPG
heavy chain: EVQLVESDGGLVQPGRSLKLPCAASGFTFSDYYMAWVRQAPTKGLEWVASISYDGSSTYYRDSVKGRFTISRDNAKSTLYLQMDSLRSEDTATYYCGRHSSYFDYWGQGVMVTVSSASTKGPSVFPLAPCSRSTSESTAALGCLVKDYFPEPVTVSWNSGALTSGVHTFPAVLQSSGLYSLSSVVTVPSSNFGTQTYTCNVDHKPSNTKVDKTVERKCCVECPPCPAPPVAGPSVFLFPPKPKDTLMISRTPEVTCVVVDVSHEDGEVQFNWYVDGVEVHNAKTKPREEQFNRTFRVVSVLTVVHQDWLNGKEYKCKVSNKGLPAPIEKTISKTKGQPREPQVYTLPPSREEMTKNQVSLTCLVKGFYPSDIAVEWESNGQPENNYKTTPPMLDSDGSFFLYSKLTVDKSRWQQGNVFSCSVMHEALHNHYTQKSLSLSPGKLEPPPSTVSNMATVAVLVVLGAAIVTGAVVAFVMKMRRRNTGGKGGDYALAPGSQTSDLSLPDCKVMVHDPHSLA
notes: as m1; positions are Eu numbers; copies: 2 + 2
Regarding B1, in assay [10], the “Enrichment factor (after/before sorting)” value was 16 and the “Increased factor a (enrichment factor/wild-type enrichment factor)” value was determined as 21.4. The “Increased factor 2 c Site 1 (combined/point mutation)” value in assay [11] was 4.5. Further, in [12], the “Increased factor 2 c Site 2 (combined/point mutation)” value worked out at 27.4.

B2: human IgG2 anti-mouse CD40 surface displayed antibody, Fc mutant S267E/S298R (antibody, name in EU numbering)
light chain (with the P2A rest): B1 light chain (with the P2A rest)
heavy chain: B1 heavy chain with S262E, G266P
notes: as for B1
As for B2, in assay [10], the “Enrichment factor (after/before sorting)” value is 32.8 and the “Increased factor a (enrichment factor/wild-type enrichment factor)” value came to 43.8. Besides, the “Increased factor 2 c Site 1 (combined/point mutation)” value in assay [13] turned out to be 1.5. For the same molecule, in [12], the “Increased factor 2 c Site 2 (combined/point mutation)” value turned out to be 56.2.
